Reference: the supplement of paper PMC11246515
± gives the standard deviation of the averaged measurements.

Assay: total protein half-life in vivo (active degradation + dilution); higher = more stable protein
[1] = E. coli NCM3722 delta-clpP delta-lon delta-hslV, growth: N-lim chemostat, doubling time 6 h
[2] = E. coli NCM3722 delta-clpP, growth: N-lim chemostat, doubling time 6 h
[3] = E. coli NCM3722 delta-hslV, growth: N-lim chemostat, doubling time 6 h
[4] = E. coli NCM3722 delta-lon, growth: N-lim chemostat, doubling time 6 h
[5] = E. coli NCM3722 delta-smpB, growth: N-lim chemostat, doubling time 6 h
[6] = wild type E. coli NCM3722, growth: C-lim chemostat, doubling time 3 h
[7] = wild type E. coli NCM3722, growth: C-lim chemostat, doubling time 6 h
[8] = wild type E. coli NCM3722, growth: C-lim chemostat, doubling time 12 h
[9] = wild type E. coli NCM3722, growth: N-lim chemostat, doubling time 6 h
[10] = wild type E. coli NCM3722, growth: N-lim chemostat, doubling time 12 h
[11] = wild type E. coli NCM3722, growth: P-lim chemostat, doubling time 6 h
[12] = wild type E. coli NCM3722, growth: P-lim chemostat, doubling time 12 h

Sequence	total protein half-life in vivo [1]	total protein half-life in vivo [2]	total protein half-life in vivo [3]	total protein half-life in vivo [4]	total protein half-life in vivo [5]	total protein half-life in vivo [6]	total protein half-life in vivo [7]	total protein half-life in vivo [8]	total protein half-life in vivo [9]	total protein half-life in vivo [10]	total protein half-life in vivo [11]	total protein half-life in vivo [12]
MSVKIVIKPNTYFDSVSLMSISTRANKLDGVEQAFVAMATEMNKGVLKNLGLLTPELEQAKNGDLMIVINGKSGADNEQLLVEIEELFNTKAQSGSHEARYATIGSAKKHIPESNLAVISVNGLFAAREARQALQNDLNVMLFSDNVSVEDELALKQLAHEKGLLMMGPDCGTAIINGAALCFGNAVRRGNIGIVGASGTGSQELSVRIHEFGGGVSQLIGTGGRDLSEKIGGLMMLDAIGMLENDPQTEIIALISKPPAPAVARKVLERARACRKPVVVCFLDRGETPVDEQGLQFARGTKEAALKAVMLSGVKQENLDLHTLNQPLIADVRARLQPQQKYIRGLFCGGTLCDETMFAVMEKHGDVYSNIQPDPEFRLKDINRSIKHTFLDFGDDDFTNGKPHPMIDPTNRISRLIEEARDPEVAVIVMDFVLGFGSHEDPVGSTIETIKEAKAIAAAEGRELIILAYVLGTDLDTPSLEQQSQMLLDAGVILASSSTNTGLLAREFICKGEEA	4.99 h	6.9 h	3.51 h	3.92 h	3.47 ± 0.37 h	3.06 h	4.99 ± 0.41 h	4.892 ± 0.0075 h	5.14 h	8.02 ± 1.4 h	4.47 h	7.02 h
MARLAAFDMDGTLLMPDHHLGEKTLSTLARLRERDITLTFATGRHALEMQHILGALSLDAYLITGNGTRVHSLEGELLHRDDLPADVAELVLYQQWDTRASMHIFNDDGWFTGKEIPALLQAFVYSGFRYQIIDVKKMPLGSVTKICFCGDHDDLTRLQIQLYEALGERAHLCFSATDCLEVLPVGCNKGAALTVLTQHLGLSLRDCMAFGDAMNDREMLVSVGSGFIMGNAMPQLRAELPHLPVIGHCRNQAVSHYLTHWLDYPHLPYSPE	5.84 ± 0.52 h			1.61 h								
MYTSGYAHRSSSFSSAASKIARVSTENTTAGLISEVVYREDQPMMTQLLLLPLLQQLGQQSRWQLWLTPQQKLSREWVQASGLPLTKVMQISQLSPCHTVESMVRALRTGNYSVVIGWLADDLTEEEHAELVDAANEGNAMGFIMRPVSASSHATRQLSGLKIHSNLYH [P0AFZ5]	5.07 ± 0.91 h			0.671 ± 0.059 h								
MINSPRVCIQVQSVYIEAQSSPDNERYVFAYTVTIRNLGRAPVQLLGRYWLITNGNGRETEVQGEGVVGVQPLIAPGEEYQYTSGAIIETPLGTMQGHYEMIDENGVPFSIDIPVFRLAVPTLIH	6.35 ± 0.25 h	1.66 ± 0.39 h	0.615 h	1.4 h	1.24 ± 0.41 h	1.4 ± 0.14 h	2.43 h	3.11 ± 0.32 h	1.65 h	1.98 h	2.29 ± 0.19 h	4.37 ± 0.13 h
MKDERRPICEVVAESIERLIIDGVLKVGQPLPSERRLCEKLGFSRSALREGLTVLRGRGIIETAQGRDSRVARLNRVQDTSPLIHLFSTQPRTLYDLLDVRALLEGESARLAATLGTQADFVVITRCYEKMLAASENNKEISLIEHAQLDHAFHLAICQASHNQVLVFTLQSLTDLMFNSVFASVNNLYHRPQQKKQIDRQHARIYNAVLQRLPHVAQRAARDHVRTVKKNLHDIELEGHHLIRSAVPLEMNLS [P0ACL5]	4.767 ± 0.025 h	1.35 h		1.21 h	1.37 ± 0.029 h	1.3 ± 0.1 h	2.15 ± 0.25 h	2.35 ± 0.16 h	1.21 ± 0.14 h	1.68 ± 0.18 h	1.56 ± 0.22 h	2.65 ± 0.72 h
MASGDLVRYVITVMLHEDTLTEINELNNYLTRDGFLLTMTDDEGNIHELGTNTFGLISTQSEEEIRELVSGLTQSATGKDPEITITTWEEWNSNRK	6.09 ± 0.66 h	4.87 h	4.69 h		4.44 ± 0.47 h	3.04 ± 0.33 h	4.88 ± 0.37 h	10.1 h	6.08 h	8.21 h	4.86 ± 0.83 h	11.1 ± 0.71 h
